According to patent publication US11278600B2, “Human alpha-galactosidase variants” (Codexis, Inc., priority 2014, dated 2022):

Columns and labels:
Type in all cases: biochemical
[1] = HTP-analysis of yeast culture supernatants, no challenge (MUGal hydrolysis); conditions: activity of the variant/activity of Rd7BB (SEQ ID NO: 44)
Outline: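 GLA variants expressed in yeast INVSc1, secreted into SD-Ura broth over 66-84 h at 30° C; clarified supernatants tested without challenge. Supernatant mixed with McIlvaine buffer pH 4.8 and 2 mM MUGal (citrate/KCl, pH 4.6), 37° C for 30-180 min, carbonate-quenched, fluorescence Ex 355/Em 448 nm.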

[2] = HTP-analysis of supernatants pretreated with acid (MUGal hydrolysis); conditions: activity of the variant/activity of Rd7BB (SEQ ID NO: 44); challenge at pH 3.5
Outline: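 GLA variants were secreted from INVSc1 yeast grown 66-84 h at 30° C. in SD-Ura with 2% glucose; supernatants were mixed with McIlvaine buffer pH 3.3-4.3 and held at 37° C. for 1-3 h. Residual activity on MUGal at pH 4.8 was then measured by fluorescence.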

[3] = HTP-analysis of supernatants pretreated with base (MUGal hydrolysis); conditions: activity of the variant/activity of Rd7BB (SEQ ID NO: 44); challenge at pH 7.5
Outline: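 GLA variants secreted from yeast INVSc1; culture supernatants pre-incubated with McIlvaine buffer pH 7.0–8.2 or 200 mM bicarbonate pH 9.1–9.7 at 37° C. for 1–18 h. Residual activity: MUGal (4 mM stock) hydrolysis at pH 4.3–4.8, 37° C., 30–180 min, carbonate quench; fluorescence Ex 355/Em 448 nm.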

B1: 672 (protein)
chain: LDNGLARTPTMGWLHWERFMCNLDCQEEPDSCISEKLFMEMAERMVTEGWKDAGYEYLCIDDCWMAPQRDSEGRLQADPQRFPHGIRQLANHVHSKGLKLGIYADVGNKTCAGFPGSFGYYDIDAQTFADWGVDLLKFDGCYCYSLENLADGYKHMSLALNRTGRPIVYSCEWPLYMWPFQKPNYTEIRQYCNHWRNFADIDDSWASIKSILDWTSRNQERIVDVAGPGGWNDPDMLVIGNFGLSWDQQVTQMALWAIMAAPLFMSNDLRAISPQAKALLQDKDVIAINQDPLGKQGYQLRKGDNFEVWERPLSGDAWAVAIINRQEIGGPRSYTIPVASLGKGVACNPACFITQLLPVKRQLGFYNWTSRLKSHINPTGTVLLQLENTMQTSLKDLL
modifications: Synthetic Polypeptide sequence of Variant No. 672 of mature Human GLA
[1]
  Relative Activity of GLA Variants After No Challenge (NC): + (>0.5 to 1.5 relative activity over Rd7BB (SEQ ID NO: 44))
[2]
  Relative Activity of GLA Variants After Challenge at pH 3.5: + (>0.5 to 1.5 relative activity over Rd7BB (SEQ ID NO: 44))
[3]
  Relative Activity of GLA Variants After Challenge at pH 7.5: − (<0.5 relative activity to Rd7BB (SEQ ID NO: 44))

B2: 673 (protein)
chain: LDNGLARTPTMGWLHWERFMCNLDCQEEPDSCISEKLFMEMAERMVTEGWKDAGYEYLCIDDCWMAPQRDSEGRLQADPQRFPHGIRQLANHVHSKGLKLGIYADVGNKTCAGFPGSFGYYDIDAQTFADWGVDLLKFDGCYCDSLENLADGYKHMSLALNRTGRPIVYSCEWPLYMWPFQKPNYTEIRQYCNHWRNFADIDDSWASIKSILDWTSRNQERIVDVAGPGGWNDPDMLVIGNFGLSWDQQVTQMALWAIMAAPLFMSNDLRAISPQAKALLQDKDVIAINQDPLGKQGYQLRKGDNFEVWERPLSGDAWAVAIINRQEIGGPRSYTIPVASLGKGVACNPACFITQLLPVKRQLGFYNWTSRLKSHIYPTGTVLLQLENTMQTSLKDLL
modifications: Synthetic Polypeptide sequence of Variant No. 673 of mature Human GLA
[1]
  Relative Activity of GLA Variants After No Challenge (NC): + (>0.5 to 1.5 relative activity over Rd7BB (SEQ ID NO: 44))
[2]
  Relative Activity of GLA Variants After Challenge at pH 3.5: + (>0.5 to 1.5 relative activity over Rd7BB (SEQ ID NO: 44))
[3]
  Relative Activity of GLA Variants After Challenge at pH 7.5: − (<0.5 relative activity to Rd7BB (SEQ ID NO: 44))

B3: 677 (protein)
chain: LDNGLARTPTMGWLHWERFMCNLDCQEEPDSCISEKLFMEMAERMVTEGWKDAGYEYLCIDDCWMAPQRDSEGRLQADPQRFPHGIRQLANHVHSKGLKLGIYADVGNKTCAGFPGSFGYYDIDAQTFADWGVDLLKFDGCYCDSLENLADGYKHMSLALNRTGRPIVYSCEWPLYMWPFQKPNYTEIRQYCNHWRNFADIDDSWASIKSILDWTSRNQERIVDVAGPGGWNDPDMLVIGNFGLSWDQQVTQWALWAIMAAPLFMSNDLRAIDSQARALLQDKDVIAINQDPLGKQGYQLRKGDNFEVWERPLSGDAWAVAIINRQEIGGPRSYTIPVASLGKGVACNPACFITQLLPVKRQLGFYNWTSRLKSHINPTGTVLLQLENTMQTSLKDLL
modifications: Synthetic Polypeptide sequence of Variant No. 677 of mature Human GLA
[1]
  Relative Activity of GLA Variants After No Challenge (NC): + (>0.5 to 1.5 relative activity over Rd7BB (SEQ ID NO: 44))
[2]
  Relative Activity of GLA Variants After Challenge at pH 3.5: + (>0.5 to 1.5 relative activity over Rd7BB (SEQ ID NO: 44))
[3]
  Relative Activity of GLA Variants After Challenge at pH 7.5: − (<0.5 relative activity to Rd7BB (SEQ ID NO: 44))

B4: 675 (protein)
chain: LDNGLARTPTMGWLHWERFMCNLDCQEEPDSCISEKLFMEMAERMVTEGWKDAGYEYLCIDDCWVAPQRDSEGRLQADPQRFPHGIRQLANHVHSKGLKLGIYADVGNKTCAGFPGSFGYYDIDAQTFADWGVDLLKFDGCYCDSLENLADGYKHMSLALNRTGRPIVYSCEWPLYMWPFQKPNYTEIRQYCNHWRNFADIDDSWASIKSILDWTSRNQERIVDVAGPGGWNDPDMLVIGNFGLSWDQQVTQMALWAIMAAPLFMSNDLRAISPQAKALLQDKDVIAINQDPLGKQGYQLRKGDNFEVWERPLSGDAWAVAIINRQEIGGPRSYTIPVASLGKGVACNPACFITQLLPVKRQLGFYNWTSRLKSHINPTGTVLLQLENTMQTSLKDLL
modifications: Synthetic Polypeptide sequence of Variant No. 675 of mature Human GLA
[1]
  Relative Activity of GLA Variants After No Challenge (NC): + (>0.5 to 1.5 relative activity over Rd7BB (SEQ ID NO: 44))
[2]
  Relative Activity of GLA Variants After Challenge at pH 3.5: + (>0.5 to 1.5 relative activity over Rd7BB (SEQ ID NO: 44))
[3]
  Relative Activity of GLA Variants After Challenge at pH 7.5: − (<0.5 relative activity to Rd7BB (SEQ ID NO: 44))

B5: 676 (protein)
chain: LDNGLARTPTMGWLHWERFMCNLDCQEEPDSCISEKLFEEMAERMVTEGWKDAGYEYLCIDDCWMAPQRDSEGRLQADPQRFPHGIRQLANHVHSKGLKLGIYADVGNKTCAGFPGSFGYYDIDAQTFADWGVDLLKFDGCYCDSLENLADGYKHMSLALNRTGRPIVYSCEWPLYMWPFQKPNYTEIRQYCNHWRNFADIDDSWASIKSILDWTSRNQERIVDVAGPGGWNDPDMLVIGNFGLSWDQQVTQMALWAIMAAPLFMSNDLRAISPQAKALLQDKDVIAINQDPLGKQGYQLRKGDNFEVWERPLSGDAWAVAIINRQEIGGPRSYTIPVASLGKGVACNPACFITQLLPVKRQLGFYNATSRLKSHINPTGTVLLQLENTMQTSLKDLL
modifications: Synthetic Polypeptide sequence of Variant No. 676 of mature Human GLA
[1]
  Relative Activity of GLA Variants After No Challenge (NC): + (>0.5 to 1.5 relative activity over Rd7BB (SEQ ID NO: 44))
[2]
  Relative Activity of GLA Variants After Challenge at pH 3.5: + (>0.5 to 1.5 relative activity over Rd7BB (SEQ ID NO: 44))
[3]
  Relative Activity of GLA Variants After Challenge at pH 7.5: + (>0.5 to 1.5 relative activity over Rd7BB (SEQ ID NO: 44))

B6: 674 (protein)
chain: LDNGLARTPTMGWLHWERFMCNLDCQEEPDSCISEKLFMEMAERMVTEGWKDAGYEYLCIDDCWMAPQRDSEGRLQADPQRFPHGIRQLANHVHSKGLKLGIYADVGNKTCAGFPGSFGYYDIDAQTFADWGVDLLKFDGCYCDSLENLADGYKHMSLALNRTGRPIVYSCEWPLYMWPFQKPNYTEIRQYCNHWRNFADIDDSWASIKSILDWTSRNQERIVDVAGPGGWNDHDMLVIGNFGLSWDQQVTQMALWAIMAAPLFMSNDLRAISPQAKALLQDKDVIAINQDPLGKQGYQLRKGDNFEVWERPLSGDAWAVAIINRQEIGGPRSYTIPVASLGKGVACNPACFITQLLPVKRQLGFYNWTSRLKSHINPTGTVLLQLENTMQTSLKDLL
modifications: Synthetic Polypeptide sequence of Variant No. 674 of mature Human GLA
[1]
  Relative Activity of GLA Variants After No Challenge (NC): − (<0.5 relative activity to Rd7BB (SEQ ID NO: 44))
[2]
  Relative Activity of GLA Variants After Challenge at pH 3.5: − (<0.5 relative activity to Rd7BB (SEQ ID NO: 44))
[3]
  Relative Activity of GLA Variants After Challenge at pH 7.5: − (<0.5 relative activity to Rd7BB (SEQ ID NO: 44))

B7: 640 (protein)
chain: LDNGLARTPPMGWLHWERFMCNLDCQEEPDSCISEKLFEEMADRMVTEGWKDAGYEYLCIDDCWMAPQRDSEGRLQADPQRFPHGIRQLANHVHSKGLKLGIYADVGNKTCAGFPGSFGYYDIDAQTFADWGVDLLKFDGCYCDSLENLADGYKHMSLALNRTGRPIVYSCEWPLYMWPFQKPNYTEIRQYCNHWRNFADIDDSWASIKSILDWTSRNQERIVDVAGPGGWNDPDMLVIGNFGLSWDQQVTQMALWAIMAAPLFMSNDLRAISPQAKALLQDKDVIAINQDPLGKQGYQLRKGDNFEVWERPLSGDAWAVAIINRQEIGGPRSYTIPVASLGKGVACNPACFITQLLPVKRQLGFYNWTSRLKSHINPTGTVLLQLENTMQTSLKDLL
modifications: Synthetic Polypeptide sequence of Variant No. 640 of mature Human GLA
[1]
  Relative Activity of GLA Variants After No Challenge (NC): + (>0.5 to 1.5 relative activity over Rd7BB (SEQ ID NO: 44))
[2]
  Relative Activity of GLA Variants After Challenge at pH 3.5: + (>0.5 to 1.5 relative activity over Rd7BB (SEQ ID NO: 44))
[3]
  Relative Activity of GLA Variants After Challenge at pH 7.5: + (>0.5 to 1.5 relative activity over Rd7BB (SEQ ID NO: 44))

B8: 678 (protein)
chain: LDNGLARTPTMGWLHWERFMCNLDCQEEPDSCISEKLFMEMAERMVTEGWKDAGYEYLCIDDCWMAPQRDSEGRLQADPQRFPHGIRQLANHVHSKGLKLGIYADVGNKTCAGFPGSFGYYDIDAQTFADWGVDLLKFDGCYCDSLENLADGYKHMSLALNRTGRPIVYSCEWPLYMWPFQKPNYTEIRQYCNHWRNFADIDDSWASIKSILDWTSRNQERIVDVAGPGGWNDPDMLVIGNFGLSWDQQVTQWALWGIMAAPLFMSNDLRAISPQARALLLDKDVIAINQDPLGKQGYQLRKGDNFEVWERPLSGDAWDVAIINRQEIGGPRSYTIPVASLGKGVACNPACFITQLLPVKRQLGFYNWTSRLKSHINPTGTVLLQLENTMQTSLKDLL
modifications: Synthetic Polypeptide sequence of Variant No. 678 of mature Human GLA
[1]
  Relative Activity of GLA Variants After No Challenge (NC): − (<0.5 relative activity to Rd7BB (SEQ ID NO: 44))
[2]
  Relative Activity of GLA Variants After Challenge at pH 3.5: − (<0.5 relative activity to Rd7BB (SEQ ID NO: 44))
[3]
  Relative Activity of GLA Variants After Challenge at pH 7.5: − (<0.5 relative activity to Rd7BB (SEQ ID NO: 44))
